The values that follow come from US20220409550A1.

The target in test [1] is murine PD-L2 (50804-M08H, Sino Biological) (murine) (UniProt Q9WUL5). The test is described as follows: SPR. In general terms: In SPR one partner is held on a chip, and binding of the other changes the refractive index at the surface.
In test [2] the target is murine PD-L1 (50010-M08H, Sino biological) (murine) (UniProt Q9EP73). The test is described as follows: SPR.
The target in test [3] is murine PD-L1 on CHO-K1 cells (murine) (UniProt Q9EP73). As to the kind of experiment: cell-based or functional assay.
Chain of murine PD-L1 on CHO-K1 cells (murine) (Q9EP73 19-290): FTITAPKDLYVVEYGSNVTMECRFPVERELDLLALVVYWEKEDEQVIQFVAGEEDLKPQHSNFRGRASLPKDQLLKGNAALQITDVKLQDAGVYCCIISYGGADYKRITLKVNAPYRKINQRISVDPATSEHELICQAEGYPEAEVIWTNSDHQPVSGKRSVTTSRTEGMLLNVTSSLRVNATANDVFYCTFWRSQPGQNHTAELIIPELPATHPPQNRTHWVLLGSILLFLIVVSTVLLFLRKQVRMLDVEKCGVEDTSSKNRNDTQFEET

Chain of murine PD-L1 (50010-M08H, Sino biological) (murine) (Q9EP73 19-238, stated change not applied): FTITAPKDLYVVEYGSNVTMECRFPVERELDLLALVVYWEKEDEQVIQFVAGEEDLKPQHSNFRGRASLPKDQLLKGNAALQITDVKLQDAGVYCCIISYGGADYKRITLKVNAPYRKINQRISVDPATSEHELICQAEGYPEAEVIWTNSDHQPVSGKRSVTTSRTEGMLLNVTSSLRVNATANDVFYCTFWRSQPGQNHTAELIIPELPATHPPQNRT
Chain of murine PD-L2 (50804-M08H, Sino Biological) (murine) (Q9WUL5 20-219, stated change not applied): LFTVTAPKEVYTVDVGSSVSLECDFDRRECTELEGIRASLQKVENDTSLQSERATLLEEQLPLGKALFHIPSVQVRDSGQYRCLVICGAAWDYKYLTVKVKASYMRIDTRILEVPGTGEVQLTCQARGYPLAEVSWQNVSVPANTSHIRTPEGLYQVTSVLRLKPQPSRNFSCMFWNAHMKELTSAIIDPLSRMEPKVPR

In the case of “PD-1-decorated nanocage (PdNC) (from UniProt P02794 1-183)”, the Kd in test [1] is listed as 2.07E-9 ?; in test [2], 3.81E-10 ?. Besides, the half maximal effective concentration (EC50), NFAT-mediated luciferase expression, bioluminescent PD-1/PD-L1 blockade bioassay in test [3] came out at 761 pM.
